Results on one substance are retold here after patent US20220119464A1.

In general, Kd refers to the equilibrium constant for the complex coming apart. High values mean a looser complex, low ones a tighter complex.

This assay deals with biotinylated D-form of SARS-CoV-2 HR1 (SARS-CoV-2).

The substance D-form of EK1 (peptide) showed a Kd of 32 nM.
